Data reported in US11491212.

Chain of Factor X, P00742 (P00742 whole entry, looked up): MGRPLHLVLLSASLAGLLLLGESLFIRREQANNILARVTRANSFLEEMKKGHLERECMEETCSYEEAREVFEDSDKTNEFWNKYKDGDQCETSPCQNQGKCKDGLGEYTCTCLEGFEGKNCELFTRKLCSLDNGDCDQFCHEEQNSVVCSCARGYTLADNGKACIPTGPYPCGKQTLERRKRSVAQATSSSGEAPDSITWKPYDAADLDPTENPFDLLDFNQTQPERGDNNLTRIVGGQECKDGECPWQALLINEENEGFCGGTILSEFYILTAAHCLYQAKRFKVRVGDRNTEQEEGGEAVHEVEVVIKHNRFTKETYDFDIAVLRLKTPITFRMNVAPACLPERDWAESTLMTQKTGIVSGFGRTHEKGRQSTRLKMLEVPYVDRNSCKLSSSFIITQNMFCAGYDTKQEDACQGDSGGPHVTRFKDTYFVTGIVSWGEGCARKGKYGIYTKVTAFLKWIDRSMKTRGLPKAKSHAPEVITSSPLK
Chain of Factor X (FX), P00742 (P00742 whole entry, looked up): as above

Protein	kcat (Factor X (FX), P00742) [s⁻¹]	KM (Factor X, P00742) [µM]	KM (Factor X (FX), P00742) [µM]	kcat/KM (Factor X, P00742) [M⁻¹ s⁻¹]	% of WT kcat/KM (against Catalyst Biosciences WT FIXa), FX activation in the Xase complex (Factor X (FX), P00742) [%]	KM (nM) for activation of FX by FIXa in the Xase complex (FVIIIa, PC/PS vesicles, Ca2+), fluorogenic Spectrafluor FXa assay (Factor X (FX), P00742) [nM]	kcat/KM for FX activation by FIXa in the Xase complex (FVIIIa, PC/PS vesicles, Ca2+), indirect fluorogenic Spectrafluor FXa assay (Factor X (FX), P00742) [M⁻¹ s⁻¹]
FIXa-Y155F/K247N/N249S/R338E/E410N (protein) chain 1: not shown chain 2: not shown	7.3	0.0177					
FIXa-R318Y/R338E/T343R/N346D/R403E/E410N (protein) chain 1: not shown chain 2: not shown	5.4		0.067	8.2e+07			
FIXa-K247N/N249S/R318Y/T343R/R403E/E410N (protein) chain 1: not shown chain 2: not shown	9.5	0.0805					
FIXa-Y155F/K247N/N249S/R318Y/T343R/R403E (protein) chain 1: not shown chain 2: not shown	7.5	0.0605					
FIXa-K247N/N249S/R318Y/R338E/T343R/E410N (protein) chain 1: not shown chain 2: not shown	8.8	0.0328					
FIXa-R318Y/R338E/N346Y/R403E/E410N (protein) chain 1: not shown chain 2: not shown	3.4		0.0281	1.2e+08			
FIXa-Y155F/K247N/N249S/R318Y/T343R/R403E/E410N (protein) chain 1: not shown chain 2: not shown	9	0.0606					
FIXa-D104N/K106S/R318Y/R338E/T343R/R403E/E410N (protein) chain 1: not shown chain 2: not shown	5.7		0.0266	2.2e+08			
FIXa-R318Y/R338E/T343R/N346Y/R403E/E410N (protein) chain 1: not shown chain 2: not shown	4.6		0.0158	3.1e+08			
FIXa-R318Y/R338E/T343R/R403E/E410N (protein) chain 1: not shown chain 2: not shown	9.7		0.0247	4.2e+08	1217	22.3	5.4e+08
FIXa-K247N/N249S/N260S/R318Y/R338E/R403E/E410N (protein) chain 1: not shown chain 2: not shown	3.4		0.0474	6.7e+07	217	62.2	9.7e+07
FIXa-Y155F/R318Y/R338E/T343R/R403E/E410N (protein) chain 1: not shown chain 2: not shown	7.8		0.0272	3e+08			
FIXa-R318Y/R338E/Y345A/R403E/E410N (protein) chain 1: not shown chain 2: not shown	1.4		0.0188	8.3e+07			
